Where a chain is given by its changes, count along the chain named.

Assay [1] addresses T1, 血浆激肽释放酶(plasma kallikrein,PK) (human, UniProt P03952 20-638). The assay can be described thus: cell-based or functional assay.
Assay [2] addresses T1, 血浆激肽释放酶(plasma kallikrein,PK). Put plainly: cell-based or functional assay. This is another data set of the same source.

T1 sequence (P03952 20-638 limits assumed): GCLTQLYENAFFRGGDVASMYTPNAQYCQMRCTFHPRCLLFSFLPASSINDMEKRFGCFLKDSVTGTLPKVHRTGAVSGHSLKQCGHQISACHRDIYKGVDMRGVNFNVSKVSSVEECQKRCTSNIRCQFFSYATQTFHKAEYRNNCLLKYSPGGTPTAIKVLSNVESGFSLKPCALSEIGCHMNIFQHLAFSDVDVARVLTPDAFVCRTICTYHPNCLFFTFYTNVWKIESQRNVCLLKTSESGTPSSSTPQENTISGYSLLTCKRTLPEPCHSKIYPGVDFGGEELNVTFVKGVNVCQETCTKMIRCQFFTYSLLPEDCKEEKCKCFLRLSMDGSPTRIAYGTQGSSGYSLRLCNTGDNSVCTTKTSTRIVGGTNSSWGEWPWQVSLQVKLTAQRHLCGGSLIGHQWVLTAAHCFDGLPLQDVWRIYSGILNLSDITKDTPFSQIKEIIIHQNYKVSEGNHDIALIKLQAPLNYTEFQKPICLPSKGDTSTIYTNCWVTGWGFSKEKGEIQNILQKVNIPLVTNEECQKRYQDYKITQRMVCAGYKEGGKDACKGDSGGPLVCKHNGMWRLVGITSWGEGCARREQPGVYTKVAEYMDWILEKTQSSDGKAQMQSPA

B1: KH11 (antibody, human IgG4 S228P, kappa)
heavy: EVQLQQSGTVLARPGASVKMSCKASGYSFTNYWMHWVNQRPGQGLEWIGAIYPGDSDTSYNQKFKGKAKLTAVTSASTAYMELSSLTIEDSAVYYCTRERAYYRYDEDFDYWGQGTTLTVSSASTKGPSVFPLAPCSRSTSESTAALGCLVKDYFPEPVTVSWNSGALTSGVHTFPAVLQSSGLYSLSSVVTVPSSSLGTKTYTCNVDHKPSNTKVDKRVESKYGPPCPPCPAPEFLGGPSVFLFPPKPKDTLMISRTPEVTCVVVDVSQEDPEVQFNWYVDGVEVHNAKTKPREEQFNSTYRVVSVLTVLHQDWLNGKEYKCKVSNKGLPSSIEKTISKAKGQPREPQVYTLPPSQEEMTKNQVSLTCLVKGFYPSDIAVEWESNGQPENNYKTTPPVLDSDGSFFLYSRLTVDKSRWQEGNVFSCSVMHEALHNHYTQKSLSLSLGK
light: EIVLTQSPTTMAASPGEKITITCSATSIINSNYFHWYQQKPGFSPKLLIYRTSNLASGVPARFSGSGSGTSYSLTIGTMEAEDVATYYCQQGSSLPRTFGGGTKLEIKRTVAAPSVFIFPPSDEQLKSGTASVVCLLNNFYPREAKVQWKVDNALQSGNSQESVTEQDSKDSTYSLSSTLTLSKADYEKHKVYACEVTHQGLSSPVTKSFNRGEC
Turning to B1, the “IC50(nM), PK activity in human plasma activated with Factor XIIa (H-Pro-Phe-Arg-AMC)” value (“IC50(nM), PK activity” for short) in assay [1] turned out to be 0.103 nM. Besides, the “IC50(nM), PK enzyme activity on H-Pro-Phe-Arg-AMC (fluorescence)” value (“IC50(nM), PK enzyme activity” below) in assay [2] stood at 0.188 nM.

B2: KH10 (antibody, human IgG1, kappa)
heavy: not shown
light: B1 light
B2: the “IC50(nM), PK enzyme activity” value in assay [2] is 0.227 nM.

B3: KH21 (antibody, V domains shown)
VH: EVQLQQSGAELVKPGASVKLSCTGSGFNIKDIYMFWVKQRPEQGLEWIGRIDPENGNIKYDPKFQGKATITAETSSNTVYLQLNSLTSEDTAVYYCSRGGGLFAYWGQGTLVTVSA
VL: DIQMTQSPSSLSASLGGKVTITCKASQDINKYIAWYQHKPGKGPRLLIHYTSTLQPGIPSRFSGSGSGSDYSFSISTLEPEDIATYYCLQYDDLWTFGGGTKLEIK
Take B3: in assay [1], the “IC50(nM), PK activity” value amounted to 1.29 nM. Besides, in assay [2], the “IC50(nM), PK enzyme activity” value is 0.82 nM.

B4: KH09 (antibody, human IgG4 S228P, kappa, V domains shown)
VH: EVQLVESGGALVKPGGSLRLSCAASGFNIKDTYIFWVRQMPRKGLEWIGRIDPENDNTKYDPKIQGKATITADTSTDTAYMELSSLTSEDTAVYYCAKGGGLFAYWGQGTLVTVSS
VL: DIQMTQSPSAMSASVGDRVTITCEASHDINNYIAWYQQKPGKAPKLLIYYTSTLQSGVPSRFSGSGSGTDFTFTISSLQPEDIATYYCLQYDNLFTFGQGTKVEIKR
B4: the “IC50(nM), PK activity” value in assay [1] stood at 0.764 nM.

B5: KH20 (antibody, V domains shown)
VH: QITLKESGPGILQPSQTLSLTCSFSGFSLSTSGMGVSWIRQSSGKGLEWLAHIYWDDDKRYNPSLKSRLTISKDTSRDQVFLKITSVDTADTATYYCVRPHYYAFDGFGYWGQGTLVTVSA
VL: DIKMTQSPSSMSASPGERVTITCKASQDINSYLSWFQQKSGKFPKTLIYRANRLVDGVASRFSGSGSGQDYSLTISSLDYEDMGIYYCVQYDEFPLTFGAGTKLELK
Regarding B5, the “IC50(nM), PK activity” value in assay [1] was found to be 1.09 nM. In addition, in assay [2], the “IC50(nM), PK enzyme activity” value was found to be 1.1 nM.

B6: KH01 (antibody, human IgG4 S228P, kappa, V domains shown)
VH: EVQLHQSGAELVKPGASVRLSCTASGFNIKDTYIFWVKQRPEQGLEWIGRIDPENDNTKFDPKIQGKATLTADTSSNTAYLQLGSLTSEDSAIYYCAKGGGLFAYWGQGTLVSVSA
VL: DIQMTQSPSSLSASLGGKVTITCKASHDINKYIAWYQHKPGSGPRLLIHFTSTLQSDIPSRFSGSGSGRDYSFSISNLEPEDIATYYCLQYDNLFTFGGGTKLEIKR
In the case of B6, the “IC50(nM), PK activity” value in assay [1] worked out at 0.753 nM. Moreover, in assay [2], the “IC50(nM), PK enzyme activity” value is 0.297 nM.

B7: KH05 (antibody, human IgG4 S228P, kappa, V domains shown)
VH: B6 VH with H5Q, E42K, F60Y, G84S
VL: B4 VL with A10S, M11L, K42Q, A43P, D70E, F73L, S77N, I83F
Take B7: the “IC50(nM), PK activity” value in assay [1] was found to be 0.921 nM.

B8: KH02 (antibody, human IgG4 S228P, kappa, V domains shown)
VH: B6 VH with H5Q, E42K, F60Y, G84S
VL: B6 VL with A13T, K24E, K31N, S42K, F50Y, D57G, R69K
Take B8: the “IC50(nM), PK activity” value in assay [1] amounted to 0.52 nM. In addition, in assay [2], the “IC50(nM), PK enzyme activity” value stood at 0.235 nM.

B9: KH07 (antibody, human IgG4 S228P, kappa, V domains shown)
VH: B6 VH with H5Q, E42K, F60Y, G84S
VL: B4 VL with K42Q, A43P
For B9, the “IC50(nM), PK activity” value in assay [1] was found to be 0.863 nM.

B10: KH18 (antibody, human IgG4 S228P, kappa, V domains shown)
VH: QVQLLESGAELVRPGSSVKISCKASGYAFTNYWMHWVKQRPGQGLEWIGAIYPGDSDTSYNQKFKGKATLTADESSSTAYMQLSSLRSEDSAVYSCARERAYYRYDEDFDYWGQGTTVTVSS
VL: DIQMTQSPSSLSASVGDRVTITCSATSIINSNYFHWYQQKPGKAPKLLIYRTSNLASGVPSRFSGSGSGTDFTFTISSLQPEDIATYYCQQGSSLPRTFGGGTKLEIKR
For the molecule B10, the “IC50(nM), PK activity” value in assay [1] is 0.419 nM.

B11: KH16 (antibody, human IgG4 S228P, kappa, V domains shown)
VH: EVQLVQSGAEVKKPGATVKISCKVSGYTFTNYWMHWVQQAPGKGLEWMGAIYPGDSDTSYNQKFKGRVTITADTSTDTAYMELSSLRSEDTAVYYCTRERAYYRYDEDFDYWGQGTLVTVSS
VL: B10 VL
On to B11, for which the “IC50(nM), PK enzyme activity” value in assay [2] was 0.23 nM.

B12: KH13 (antibody, human IgG1, kappa, V domains shown)
VH: QVQLVQSGAEVKKPGASVKVSCKASGYTFTNYWMHWVRQAPGQGLEWMGAIYPGDSDTSYNQKFKGRVTMTRDTSTSTVYMELSSLRSEDTAVYYCARERAYYRYDEDFDYWGQGTLVTVSS
VL: B10 VL
As for B12, the “IC50(nM), PK enzyme activity” value in assay [2] was found to be 0.221 nM.

B13: KH12 (antibody, human IgG1, kappa, V domains shown)
VH: B12 VH
VL: EIVMTQSPPTLSLSPGERVTLSCSATSIINSNYFHWYQQKPGQAPRLLIYRTSNLASGIPARFSGSGSGTDFTLTISSLQPEDFAVYYCQQGSSLPRTFGGGTKLEIKR
As for B13, the “IC50(nM), PK enzyme activity” value in assay [2] worked out at 0.174 nM.

B14: KH15 (antibody, human IgG4 S228P, kappa, V domains shown)
VH: B11 VH
VL: B13 VL
As for B14, in assay [2], the “IC50(nM), PK enzyme activity” value was found to be 0.224 nM.

B15: KH14 (antibody, human IgG1, kappa, V domains shown)
VH: B12 VH
VL: EIVLTQSPAIMSASPGERVTMTCSATSIINSNYFHWYQQKPGTSPRRWIYRTSNLASGVPARFSGSGSGTDYSLTISSMEPEDAATYYCQQGSSLPRTFGGGTKLEIKR
B15: in assay [2], the “IC50(nM), PK enzyme activity” value stood at 0.398 nM.

B16: KH19 (antibody, V domains shown)
VH: EVQLQQSGAEVVRPGASVKLSCKPSGFNIKDYYMFWLRQRPDQGLEWIGRIDPENGNTVYDPRFQDRASITAVTSSNTAFLQVNSLTSEDTAVYYCARAGSIPSYWGQGTLVTVSA
VL: DIQMTQSPSSLSASLGDKITITCKASQDINKYIAWYQHKPGKGPRLLIHYTSSLHQDIPSRFSGSGSGRDYSFSISNLEPEDFAIYYCLQYDDLWTFGGGTKVEIK
In the case of B16, the “IC50(nM), PK activity” value in assay [1] came out at 0.93 nM. The “IC50(nM), PK enzyme activity” value in assay [2] came to 0.87 nM.

B17: KH03 (antibody, human IgG4 S228P, kappa)
heavy: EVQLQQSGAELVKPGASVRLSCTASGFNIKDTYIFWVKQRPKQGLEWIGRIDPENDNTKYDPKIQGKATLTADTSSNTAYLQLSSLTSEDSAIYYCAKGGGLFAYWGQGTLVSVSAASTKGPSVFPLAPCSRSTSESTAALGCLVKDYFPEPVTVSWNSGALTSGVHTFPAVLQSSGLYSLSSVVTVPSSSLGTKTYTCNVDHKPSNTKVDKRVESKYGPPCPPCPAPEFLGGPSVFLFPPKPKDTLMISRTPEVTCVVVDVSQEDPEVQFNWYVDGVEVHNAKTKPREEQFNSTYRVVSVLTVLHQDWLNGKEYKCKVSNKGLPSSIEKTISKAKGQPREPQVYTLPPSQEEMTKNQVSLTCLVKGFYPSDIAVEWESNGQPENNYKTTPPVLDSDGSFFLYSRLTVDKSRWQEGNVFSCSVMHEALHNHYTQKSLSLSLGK
light: DIQMTQSPSAMSASVGDRVTITCEASHDINNYIAWYQQKPGKAPKLLIYYTSTLQSGVPSRFSGSGSGTEFTLTISNLQPEDFATYYCLQYDNLFTFGQGTKVEIKRTVAAPSVFIFPPSDEQLKSGTASVVCLLNNFYPREAKVQWKVDNALQSGNSQESVTEQDSKDSTYSLSSTLTLSKADYEKHKVYACEVTHQGLSSPVTKSFNRGEC
For the molecule B17, the “IC50(nM), PK activity” value in assay [1] amounted to 0.949 nM.

B18: KH04 (antibody, human IgG4 S228P, kappa)
heavy: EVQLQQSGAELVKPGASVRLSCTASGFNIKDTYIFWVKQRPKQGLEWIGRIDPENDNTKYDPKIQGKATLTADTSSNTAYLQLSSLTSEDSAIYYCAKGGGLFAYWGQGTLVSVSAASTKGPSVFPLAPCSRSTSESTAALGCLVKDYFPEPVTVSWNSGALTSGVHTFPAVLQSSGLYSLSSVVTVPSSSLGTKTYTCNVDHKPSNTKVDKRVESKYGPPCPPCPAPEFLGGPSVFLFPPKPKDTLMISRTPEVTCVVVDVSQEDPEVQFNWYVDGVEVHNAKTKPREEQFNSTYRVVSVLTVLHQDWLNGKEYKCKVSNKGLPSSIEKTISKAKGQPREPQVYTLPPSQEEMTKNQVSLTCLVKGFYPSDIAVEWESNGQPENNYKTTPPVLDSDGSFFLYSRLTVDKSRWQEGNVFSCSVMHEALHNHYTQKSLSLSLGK
light: B17 light with A10S, M11L
As to B18, in assay [1], the “IC50(nM), PK activity” value was found to be 0.987 nM.

These data come from patent CN114790245A (CHENGDU KANGHONG BIOLOGICAL TECH CO LTD, dated 2022).
